Experimental data as given in US20170267762A1 (APOLLOMICS, published 2017).

Legend:
[1] = target: T1, human PD-1 extracellular domain fused with mouse Fc (PD-1-mFc) (human, UniProt Q15116 25-170); experiment: ELISA ligand blockage: biotinylated PD-L1-mFc binding to plate-bound PD-1, OD450 (methods similar to Example 2: PD-1-mFc coated)
T1 construct: extracellular domain; not used because of the label; also called hPD-1-mFc; human PD-1-mouse Fc fusion protein
Procedure: PD-1-mFc antigen (CrownBio) was suspended in PBS (Hyclone,Cat No:SH30256.01B) buffer (2 ug/ml, 100 ul/ well) and coated on the 96 well plate (costar, Cat No.:9018) 4° C. overnight. Plates were washed 3 times using washing buffer: PBS+0.05% Tween 20(Sigma, Cat No.:P1379). 200 ul of blocking buffer (PBS+1%BSA(Roche, Cat No.:738328)), was added to each well, incubated at 37° C. for 1 hour, and washed 3 times. Various concentrations (suitable dilutions of hybridoma supernatant in PBS) of the anti-PD-1 Abs were added to the wells (100 μl/well) and incubated at 37° C. for 1 hour. […] Secondary antibody (Avidin HRP eBioscience cat No.:E07418-1632, 1:500, 100 ul/well) was added, incubated at 37 ° C. for 0.5 hour, and washed 3 times. TMB (Sigma, Cat No.: T0440, 100 ul/well) was added, and incubated for 3 min at RT. To stop the reaction, 2N H2SO4 (100 ul/well), was added. The colorimetric signals were developed and read at 450 nm using a Auto Plate SpectraMax Plus (Supplier: Molecular Devices; Model: MNR0643; Software: SoftMax Pro v5.4).

[2] = target: T2, human PD-1 (construct not stated) (human, UniProt Q15116 25-167, limits assumed); experiment: SPR (Biacore 3000), antibody captured on the chip, PD-1 as analyte, 1:1 Langmuir fit
T2 construct: also called PD-1 analyte
Procedure: To characterize the binding characteristics of the humanized antibodies, the binding kinetics between PD-1 and PD-1 antibodies were measured by Biacore3000 and recorded with a data collection rate of 1 Hz. The polyclonal rabbit anti-mouse IgG (GE, BR-1008-38) was diluted with 10 mM pH 5.0 sodium acetate and immobilized onto reference and experiment flow cells of a CMS biosensor chip to around 15000 RU using an amine coupling kit (GE, BR10050). In the beginning of each cycle, diluted test antibody (1.5 μg/mL) was injected over experiment flow cell for 1 minute to be captured. PD-1 analyte series were prepared by diluting the stocks with running buffer to 100nM followed by 2× serial dilution in the same buffer down to 0.78nM. Analytes were injected in series over the reference and experiment flow cells for 3 minutes at a flow rate of 30 μL/minute. Then running buffer (PBS with 0.05% P20) was allowed to flow over for 10 minutes at a flow rate of 30 μL/minute. At the end of each cycle, the biosensor surface was regenerated with 3 minutes injection of 10 mM pH1.7 Glycine-HC1 buffer at a flow rate of 10 μL/minute. For each analyte sample injection (i.e. each cycle), binding responses obtained from the experimental biosensor surface were double referenced by subtracting simultaneously recorded responses from the reference surface followed by additional subtraction of responses from a single referenced running buffer sample. The association and dissociation rate constants (ka and kd) were determined simultaneously by fitting double-referenced sensorgrams of the entire titration series to Langmuir model (1:1) using Biaevaluation 4.0 software. The dissociation constant, KD, was calculated from the determined rate constants by the relation KD =kd/ka. […] The Biocore binding curves are shown in FIGS. 10 and 17A, top panel, and the quantified binding data are summarized in FIGS. 10 and 17A, bottom panel.

[3] = target: T3, human PD-1 extracellular domain fused with human Fc tag (hPD-1-hFc) (human); experiment: ELISA binding to plate-bound PD-1, OD450 (methods similar to Example 2: plate coated with PD1-hFc)
T3 construct: also called human PD-1-hFc
Procedure: ELISA binding analysis was conducted based on human PD-1-hFc Protein. 96-well plates (Costar, Cat No:9018) were coated with 100 μL of 2 μg/ml PD1-hFc (CrownBio) in coating buffer (PBS, Hyclone, Cat No:SH30256.01B) overnight at 4° C. The wells were aspirated and non-specific binding sites were blocked by adding 200 μL of blocking buffer with 1% (w/v) of bovine serum albumin (BSA, Roche, Cat No: 738328) and incubating for 1 hour at 37° C. After the plates are washed three times with wash buffer (PBS with 0.05%(v/v) Tween20 (Sigma, Cat No:P1379), 100 μL/well of a suitable dilutions of hybridoma supernatant in blocking buffer were added and incubated at room temperature for 1 hour. The plates were washed and incubated with 100 μL/well of Goat anti-Mouse IgG (H+L) (Thermo, Cat No: 31432) in blocking buffer for 60 min. After the plates were washed, 100 μL/well of substrate solution (TMB(eBioscience, Cat No:00-4201-56) was added and the plates were incubated for 2min at room temperature. 100 μL/well of stop solution (2N H2SO4) was added to stop the reaction. The colorimetric signals were developed and read at 450 nm using a Auto Plate SpectraMax Plus (Supplier: Molecular Devices; Model: MNR0643; Software: SoftMax Pro v5.4).

[4] = target: T4, human PD-1 on cells (293T cells transfected with human PD-1) (human, UniProt Q15116 25-288); experiment: FACS binding to 293T cells expressing human PD-1, MFI
T4 construct: whole, on cells; Also used as the target for the functional rows, where PD-1 stands on human T cells
Procedure: The cells were incubated with the indicated antibody (20 ug/ml with the dilution of ⅕) at 4° C. for 1 h. Cells were washed three times with FACS buffer. A secondary antibody (PE Goat anti-mouse: 1:200; PE mouse anti-human: 1:10) was added to the cells at 100 ul/well, and incubated at 4° C. for 40min. Cells were washed three times with FACS buffer and analyzed by FACS Array.

[5] = target: T4, human PD-1 on cells (293T cells …); experiment: FACS ligand blockage: biotin-labeled PD-L1 binding to 293T cells expressing human PD-1, MFI
Procedure: Various concentrations of the testing hybridoma antibodies were added to the cell suspension and incubated at 4° C. for 60 minutes in 96 well plates. […] Plates were washed 3 times, and mouse anti-biotin PE antibody (Biolgend, cat# 409004) was added. Flow cytometric analyses were performed using a FACS Array.

T2 sequence (Q15116 25-167 limits assumed): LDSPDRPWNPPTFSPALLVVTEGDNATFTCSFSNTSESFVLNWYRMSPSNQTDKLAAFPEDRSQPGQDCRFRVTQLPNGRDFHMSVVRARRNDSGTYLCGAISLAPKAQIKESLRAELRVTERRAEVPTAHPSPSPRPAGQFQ
T4 sequence (Q15116 25-288): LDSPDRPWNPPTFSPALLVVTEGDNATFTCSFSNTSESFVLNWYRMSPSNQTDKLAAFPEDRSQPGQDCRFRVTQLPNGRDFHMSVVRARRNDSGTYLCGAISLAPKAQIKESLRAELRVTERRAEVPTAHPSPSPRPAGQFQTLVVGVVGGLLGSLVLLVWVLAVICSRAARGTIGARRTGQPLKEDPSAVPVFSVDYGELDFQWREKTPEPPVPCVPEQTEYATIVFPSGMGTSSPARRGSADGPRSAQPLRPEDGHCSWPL
T1 sequence (Q15116 25-170): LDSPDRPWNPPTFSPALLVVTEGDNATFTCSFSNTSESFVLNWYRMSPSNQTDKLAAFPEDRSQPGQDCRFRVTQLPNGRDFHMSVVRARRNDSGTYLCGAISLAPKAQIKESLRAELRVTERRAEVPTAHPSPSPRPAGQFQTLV
T3 sequence (chain, as listed by the source limits assumed): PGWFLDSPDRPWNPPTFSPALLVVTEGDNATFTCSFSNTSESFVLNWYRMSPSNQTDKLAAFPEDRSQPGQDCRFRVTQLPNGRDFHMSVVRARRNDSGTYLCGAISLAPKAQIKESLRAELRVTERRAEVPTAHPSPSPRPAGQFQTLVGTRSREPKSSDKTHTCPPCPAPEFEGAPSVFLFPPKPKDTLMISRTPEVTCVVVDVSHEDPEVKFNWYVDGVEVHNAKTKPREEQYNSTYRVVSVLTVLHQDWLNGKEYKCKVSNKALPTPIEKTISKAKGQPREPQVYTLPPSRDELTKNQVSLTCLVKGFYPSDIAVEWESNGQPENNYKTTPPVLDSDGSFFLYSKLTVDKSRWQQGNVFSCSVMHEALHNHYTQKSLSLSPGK

| IC50 [1] | Ka [2] | Kd [2] | koff [2] | kon [2] | EC50 [3] | EC50 [4] | IC50 [5] | Binder |
| --- | --- | --- | --- | --- | --- | --- | --- | --- |
| 0.579 µg/mL | 5.78e+09 M⁻¹ | 0.173 nM | 0.000119 s⁻¹ | 687000 M⁻¹ s⁻¹ | 0.031 µg/mL | 0.0763 µg/mL | 0.026 µg/mL | humanized 13F1-hIgG4 (antibody, IgG4 constant region with F234A and L235A, already in the entry; also called h13F1-IgG4; hu-13F1-hIgG4) heavy: not shown light: EIVLTQSPATLSLSPGERATLSCRANSSVSSMHWYQQKPGQSPEPWIYAISNLAFGVPARFSGSGSGTDYTLTISSLEPEDFAVYYCQQWSSRPPTFGQGTKLEIKRTVAAPSVFIFPPSDEQLKSGTASVVCLLNNFYPREAKVQWKVDNALQSGNSQESVTEQDSKDSTYSLSSTLTLSKADYEKHKVYACEVTHQGLSSPVTKSFNRGEC |
| 0.985 µg/mL |  |  |  |  | 0.0357 µg/mL | 0.0668 µg/mL | 0.0295 µg/mL | humanized 13F1-hIgG1 (antibody, IgG1 constant region with D265A, already in the entry; also called h13F1-IgG1; hu-13F1-hIgG1) heavy: not shown light: EIVLTQSPATLSLSPGERATLSCRANSSVSSMHWYQQKPGQSPEPWIYAISNLAFGVPARFSGSGSGTDYTLTISSLEPEDFAVYYCQQWSSRPPTFGQGTKLEIKRTVAAPSVFIFPPSDEQLKSGTASVVCLLNNFYPREAKVQWKVDNALQSGNSQESVTEQDSKDSTYSLSSTLTLSKADYEKHKVYACEVTHQGLSSPVTKSFNRGEC |
